# Data as given in patent publication US20030023038A1 (Biogen, published 2003).
# Assays:
# [1] = target: T1, human soluble myc-BAFF Q136 (human, UniProt Q9Y275 136-285); assay: co-transfection in 293T, anti-FLAG (M2) immunoprecipitation of conditioned media, western blot with anti-myc 9E10
# T1 construct: also called plasmid #JST556
# Description: Plasmids encoding the following human soluble TNF family ligands were constructed with the indicated N-terminal epitope tags beginning at the ligand amino acid residue indicated in a PCR3 based mammalian cell expression vector: FLAG-APRIL, beginning with residue A105 (plasmid #LT033) or H115 (plasmid #LT038), FLAG-TWEAK A106 (plasmid #PS288), myc-APRIL A105 (plasmid #JST557), and myc-BAFF Q136 (plasmid #JST556). […] At 48 hrs. post-transfection, conditioned media was collected and used for immunoprecipitation experiments. The immunoprecipitation samples contained 100 μl of conditioned media, 5 μg/ml of the anti-FLAG antibody M2 (Sigma, St Louis, Miss.) and 900 μl of DMEM containing 10% FCS, glutamine, Pen-Strep, G418 and sodium azide and were incubated at 4° C. for 1 hour, with agitation. Then, 30 μl of ProteinA-Sepharose beads (Amersham Pharmacia, Piscataway, N.J.) was added to the samples and the mixture was incubated overnight at 4° C. with agitation. The beads were collected by centrifugation and then washed one time with the DMEM media described above and then 3 times with PBS. The final pellet containing the beads was then suspended in 2× SDS non-reducing sample buffer and boiled for 5 minutes. […] The filter was again washed 3 times and then detected using ECL reagents (Amersham Pharmacia, Piscataway, N.J.). […]
# [2] = target: human full length BAFF (construct PS544), found cleaved in the conditioned media (human, UniProt Q9Y275 134-285); assay: co-transfection in 293T, anti-FLAG (M2) immunoprecipitation of conditioned media, western blot with anti-BAFF 53.14
# Sequence of human full length BAFF (construct PS544), found cleaved in the conditioned media (Q9Y275 134-285): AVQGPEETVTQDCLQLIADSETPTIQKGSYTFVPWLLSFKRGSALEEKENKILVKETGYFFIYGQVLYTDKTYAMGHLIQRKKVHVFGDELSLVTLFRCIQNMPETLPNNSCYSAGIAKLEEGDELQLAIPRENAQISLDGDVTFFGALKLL
# Procedure: At 48 hrs. post-transfection, conditioned media was collected and used for immunoprecipitation experiments. The immunoprecipitation samples contained 200 μl of conditioned media, 5 μg/ml of the anti-FLAG antibody M2 (Sigma) and 800 μl of DMEM containing 10% FCS, glutamine, Pen-Strep, G418 and sodium azide and were incubated at 4° C. for 1 hour, with agitation. Then, 30 μl of ProteinA-Sepharose beads (Pharmacia) was added to the samples and the mixture was incubated overnight at 4° C. with agitation. The beads were collected by centrifugation and then washed one time with the DMEM media described above and then 3 times with PBS. The final pellet containing the beads was then suspended in 2× SDS non-reducing sample buffer and boiled for 5 minutes. The beads were spun out and 25 μl of the supernatant was loaded onto 2 separate 4-20% SDS-PAGE gradient gels (Novex). In order to examine the level of ligand expression, non-immunoprecipitated conditioned media from the co-transfected cells were also loaded. These samples were diluted two fold with 2× non-reducing sample buffer, boiled for 2 min. and then 25 μl was loaded into each lane. Each gel contained a set of immunoprecipitations and a set of non-immunoprecipitated conditioned media. […] The filters were again washed 3 times and then detected using ECL reagents (Amersham). […]
# T1 sequence (Q9Y275 136-285): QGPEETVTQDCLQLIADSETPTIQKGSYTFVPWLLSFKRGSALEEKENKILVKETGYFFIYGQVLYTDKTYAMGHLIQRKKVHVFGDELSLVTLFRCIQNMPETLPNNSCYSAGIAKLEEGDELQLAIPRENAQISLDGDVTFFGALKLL
binder,measurement,setting,value
"soluble FLAG-tagged human TWEAK beginning at A106 (ligand, UniProt O43508 106-249, looked up, not shown: small tags and cut ends, also called FLAG-TWEAK A106; plasmid PS288) AIAAHYEVHPRPGQDGAQAGVDGTVSGWEEARINSSSPLRYNRQIGEFIVTRAGLYYLYCQVHFDEGKAVYLKLDLLVDGVLALRCLEEFSATAASSLGPQLRLCQVSGLLALRPGSSLRIRTLPWAHLKAAPFLTYFGLFQVH",binding result,[1],no binding
same,binding result,[2],no binding
